Source: IntAct's records for PubMed 39938803

B1: Retinoblastoma-associated protein (Homo sapiens), P06400 (parent)
chain: MPPKTPRKTAATAAAAAAEPPAPPPPPPPEEDPEQDSGPEDLPLVRLEFEETEEPDFTALCQKLKIPDHVRERAWLTWEKVSSVDGVLGGYIQKKKELWGICIFIAAVDLDEMSFTFTELQKNIEISVHKFFNLLKEIDTSTKVDNAMSRLLKKYDVLFALFSKLERTCELIYLTQPSSSISTEINSALVLKVSWITFLLAKGEVLQMEDDLVISFQLMLCVLDYFIKLSPPMLLKEPYKTAVIPINGSPRTPRRGQNRSARIAKQLENDTRIIEVLCKEHECNIDEVKNVYFKNFIPFMNSLGLVTSNGLPEVENLSKRYEEIYLKNKDLDARLFLDHDKTLQTDSIDSFETQRTPRKSNLDEEVNVIPPHTPVRTVMNTIQQLMMILNSASDQPSENLISYFNNCTVNPKESILKRVKDIGYIFKEKFAKAVGQGCVEIGSQRYKLGVRLYYRVMESMLKSEEERLSIQNFSKLLNDNIFHMSLLACALEVVMATYSRSTSQNLDSGTDLSFPWILNVLNLKAFDFYKVIESFIKAEGNLTREMIKHLERCEHRIMESLAWLSDSPLFDLIKQSKDREGPTDHLESACPLNLPLQNNHTAADMYLSPVRSPKKKGSTTRVNSTANAETQATSAFQTQKPLKSTSLSLFYKKVYRLAYLRLNTLCERLLSEHPELEHIIWTLFQHTLQNEYELMRDRHLDQIMMCSMYGICKVKNIDLKFKIIVTAYKDLPHAVQETFKRVLIKEEEYDSIIVFYNSVFMQRLKTNILQYASTRPPTLSPIPHIPRSPYKFPSSPLRIPGGNIYISPLKSPYKISEGLPTPTKMTPRSRILVSIGESFGTSEKFQKINQMVCNSDRVLKRSAEGSNPPKPLKKLRFDIEGSDEADGSKHLPGESKFQQKLAEMTSTRTRMQKQKMNDSMDTSNKEEK

Assays:
e2f1_human E2F1, Q01094 [1] = variants of: B1; conditions: with e2f1_human E2F1, Q01094
ve7_hpv16 E7, P03129 [2] = variants of: B1; conditions: with ve7_hpv16 E7, P03129
e2f1_human E2F1, Q01094 [3] = variants of: B1; conditions: with e2f1_human E2F1, Q01094; remark: listed apart in the source
ve7_hpv16 E7, P03129 [4] = variants of: B1; conditions: with ve7_hpv16 E7, P03129; remark: listed apart in the source

e2f1_human E2F1, Q01094, sequence (Q01094 whole entry): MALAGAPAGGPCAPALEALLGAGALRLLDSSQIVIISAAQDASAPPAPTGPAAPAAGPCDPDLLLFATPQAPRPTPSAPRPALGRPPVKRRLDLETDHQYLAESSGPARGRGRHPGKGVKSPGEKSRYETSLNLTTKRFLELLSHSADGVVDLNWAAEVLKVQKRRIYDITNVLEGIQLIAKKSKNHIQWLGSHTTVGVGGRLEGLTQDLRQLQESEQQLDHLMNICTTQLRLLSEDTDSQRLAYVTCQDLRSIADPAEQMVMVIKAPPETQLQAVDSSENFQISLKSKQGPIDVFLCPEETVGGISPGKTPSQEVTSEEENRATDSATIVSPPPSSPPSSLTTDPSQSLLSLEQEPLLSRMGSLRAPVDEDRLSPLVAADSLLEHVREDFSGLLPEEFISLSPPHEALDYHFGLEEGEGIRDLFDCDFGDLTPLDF
ve7_hpv16 E7, P03129, sequence (P03129 whole entry): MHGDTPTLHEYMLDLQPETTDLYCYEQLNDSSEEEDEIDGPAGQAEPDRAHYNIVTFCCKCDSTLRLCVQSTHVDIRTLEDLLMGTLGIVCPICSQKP

For V654L, the “effect of a mutation on the interaction” value (e2f1_human E2F1, Q01094 [1]) was “decreasing interaction strength” and the “effect of a mutation on the interaction” value (ve7_hpv16 E7, P03129 [2]) was “decreasing interaction strength”.

With R668H the “effect of a mutation on the interaction” value (e2f1_human E2F1, Q01094 [1]) was “increasing interaction strength”, the “effect of a mutation on the interaction” value (e2f1_human E2F1, Q01094 [3]) was “with no effect” and the “effect of a mutation on the interaction” value (ve7_hpv16 E7, P03129 [2]) was “decreasing interaction strength”.

For T687I, the “effect of a mutation on the interaction” value (e2f1_human E2F1, Q01094 [1]) was “decreasing interaction strength” and the “effect of a mutation on the interaction” value (ve7_hpv16 E7, P03129 [2]) was “decreasing interaction strength”.

In the case of E554K, the “effect of a mutation on the interaction” value (e2f1_human E2F1, Q01094 [1]) is reported as “disrupting interaction strength” and the “effect of a mutation on the interaction” value (ve7_hpv16 E7, P03129 [2]) is reported as “decreasing interaction strength”.

With E492Q the “effect of a mutation on the interaction” value (e2f1_human E2F1, Q01094 [1]) was “decreasing interaction strength” and the “effect of a mutation on the interaction” value (ve7_hpv16 E7, P03129 [2]) was “decreasing interaction strength”.

E440K was tested, and the “effect of a mutation on the interaction” value (e2f1_human E2F1, Q01094 [1]) was “increasing interaction strength”, the “effect of a mutation on the interaction” value (e2f1_human E2F1, Q01094 [3]) was “decreasing interaction strength” and the “effect of a mutation on the interaction” value (ve7_hpv16 E7, P03129 [2]) was “with no effect”. For the same variant, the “effect of a mutation on the interaction” value (ve7_hpv16 E7, P03129 [4]) was “decreasing interaction strength”.

With T738I the “effect of a mutation on the interaction” value (e2f1_human E2F1, Q01094 [1]) was “decreasing interaction strength”, the “effect of a mutation on the interaction” value (e2f1_human E2F1, Q01094 [3]) was “disrupting interaction strength” and the “effect of a mutation on the interaction” value (ve7_hpv16 E7, P03129 [2]) was “decreasing interaction strength”. The “effect of a mutation on the interaction” value (ve7_hpv16 E7, P03129 [4]) was “disrupting interaction strength”.

H686Y was tested, and the “effect of a mutation on the interaction” value (e2f1_human E2F1, Q01094 [1]) was “decreasing interaction strength”, the “effect of a mutation on the interaction” value (ve7_hpv16 E7, P03129 [2]) was “with no effect” and the “effect of a mutation on the interaction” value (ve7_hpv16 E7, P03129 [4]) was “decreasing interaction strength”.

With S648T the “effect of a mutation on the interaction” value (e2f1_human E2F1, Q01094 [1]) was “decreasing interaction strength” and the “effect of a mutation on the interaction” value (ve7_hpv16 E7, P03129 [2]) was “decreasing interaction strength”.

R621C was tested, and the “effect of a mutation on the interaction” value (e2f1_human E2F1, Q01094 [3]) was “decreasing interaction strength” and the “effect of a mutation on the interaction” value (ve7_hpv16 E7, P03129 [2]) was “decreasing interaction strength”.

In the case of R621S, the “effect of a mutation on the interaction” value (e2f1_human E2F1, Q01094 [1]) is reported as “decreasing interaction strength” and the “effect of a mutation on the interaction” value (ve7_hpv16 E7, P03129 [2]) is reported as “decreasing interaction strength”.

In the case of R741S, the “effect of a mutation on the interaction” value (e2f1_human E2F1, Q01094 [1]) is reported as “decreasing interaction strength” and the “effect of a mutation on the interaction” value (ve7_hpv16 E7, P03129 [2]) is reported as “decreasing interaction strength”.

With S751C the “effect of a mutation on the interaction” value (e2f1_human E2F1, Q01094 [1]) was “decreasing interaction strength”, the “effect of a mutation on the interaction” value (e2f1_human E2F1, Q01094 [3]) was “disrupting interaction strength” and the “effect of a mutation on the interaction” value (ve7_hpv16 E7, P03129 [2]) was “decreasing interaction strength”.

In the case of R656Q, the “effect of a mutation on the interaction” value (e2f1_human E2F1, Q01094 [1]) is reported as “disrupting interaction strength” and the “effect of a mutation on the interaction” value (ve7_hpv16 E7, P03129 [2]) is reported as “decreasing interaction strength”.
